Data from the supplement of paper PMC5998384.

Experiments:
HeLa Kyoto [1] = test: thermal stability score vs G1/S (z-score of summed log2 fold changes over temperatures); higher = more thermally stable than in G1/S
HeLa Kyoto [2] = test: solubility in G1/S (NP-40 vs SDS abundance) (log2 ratio); higher = more soluble; settings: cell cycle stage: G1/S
HeLa Kyoto [3] = test: melting temperature (median over replicates), in situ; higher = more thermally stable
HeLa Kyoto [4] = test: solubility change mitosis vs G1/S (difference of NP-40 vs SDS log2 ratios) (log2 ratio difference); higher = more soluble in mitosis
[5] = cell cycle stage: early G1 (4.5 h after nocodazole release)
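For melting temperature (median over replicates), in situ in this document: HeLa Kyoto cells synchronized by double thymidine or nocodazole block, proteins quantified by TMT10plex mass spectrometry, three independent biological replicates.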
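For solubility change mitosis vs G1/S (difference of NP-40 vs SDS log2 ratios) in this document: synchronized HeLa Kyoto cells (double thymidine block for G1/S, nocodazole release for mitosis), protein amounts in NP-40 versus SDS lysates quantified by mass spectrometry, three biological replicates.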
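For solubility in G1/S (NP-40 vs SDS abundance) in this document: HeLa Kyoto cells arrested at G1/S by double thymidine block, proteins quantified by TMT10plex mass spectrometry in mild NP-40 versus SDS extracts, three biological replicates.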
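For thermal stability score vs G1/S (z-score of summed log2 fold changes over temperatures) in this document: synchronized HeLa Kyoto cells, proteins quantified by TMT10plex mass spectrometry, three biological replicates, mitosis taken 0.5 h after nocodazole release, G1/S directly after double thymidine block.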

Sequence	thermal stability score (HeLa Kyoto [1]; [5])	thermal stability score (HeLa Kyoto [1]; cell cycle stage: mitosis)	solubility in G1/S (log2) (HeLa Kyoto [2])	melting temperature (HeLa Kyoto [3]; cell cycle stage: G1/S) [°C]	melting temperature (HeLa Kyoto [3]; cell cycle stage: mitosis) [°C]	solubility change mitosis (log2) (HeLa Kyoto [4])
MDRMASSMKQVPNPLPKVLSRRGVGAGLEAAERESFERTQTVSINKAINTQEVAVKEKHARTCILGTHHEKGAQTFWSVVNRLPLSSNAVLCWKFCHVFHKLLRDGHPNVLKDSLRYRNELSDMSRMWGHLSEGYGQLCSIYLKLLRTKMEYHTKNPRFPGNLQMSDRQLDEAGESDVNNFFQLTVEMFDYLECELNLFQTVFNSLDMSRSVSVTAAGQCRLAPLIQVILDCSHLYDYTVKLLFKLHSCLPADTLQGHRDRFMEQFTKLKDLFYRSSNLQYFKRLIQIPQLPENPPNFLRASALSEHISPVVVIPAEASSPDSEPVLEKDDLMDMDASQQNLFDNKFDDIFGSSFSSDPFNFNSQNGVNKDEKDHLIERLYREISGLKAQLENMKTESQRVVLQLKGHVSELEADLAEQQHLRQQAADDCEFLRAELDELRRQREDTEKAQRSLSEIERKAQANEQRYSKLKEKYSELVQNHADLLRKNAEVTKQVSMARQAQVDLEREKKELEDSLERISDQGQRKTQEQLEVLESLKQELATSQRELQVLQGSLETSAQSEANWAAEFAELEKERDSLVSGAAHREEELSALRKELQDTQLKLASTEESMCQLAKDQRKMLLVGSRKAAEQVIQDALNQLEEPPLISCAGSADHLLSTVTSISSCIEQLEKSWSQYLACPEDISGLLHSITLLAHLTSDAIAHGATTCLRAPPEPADSLTEACKQYGRETLAYLASLEEEGSLENADSTAMRNCLSKIKAIGEELLPRGLDIKQEELGDLVDKEMAATSAAIETATARIEEMLSKSRAGDTGVKLEVNERILGCCTSLMQAIQVLIVASKDLQREIVESGRGTASPKEFYAKNSRWTEGLISASKAVGWGATVMVDAADLVVQGRGKFEELMVCSHEIAASTAQLVAASKVKADKDSPNLAQLQQASRGVNQATAGVVASTISGKSQIEETDNMDFSSMTLTQIKRQEMDSQVRVLELENELQKERQKLGELRKKHYELAGVAEGWEEGTEASPPTLQEVVTEKE [HIP1]	0.173	1.11	0.0989	49.9	50.2	0.0765
MDRSAEFRKWKAQCLSKADLSRKGSVDEDVVELVQFLNMRDQFFTTSSCAGRILLLDRGINGFEVQKQNCCWLLVTHKLCVKDDVIVALKKANGDATLKFEPFVLHVQCRQLQDAQILHSMAIDSGFRNSGITVGKRGKTMLAVRSTHGLEVPLSHKGKLMVTEEYIDFLLNVANQKMEENKKRIERFYNCLQHALERETMTNLHPKIKEKNNSSYIHKKKRNPEKTRAQCITKESDEELENDDDDDLGINVTIFPEDY [TYW3]	-0.67	-1.25	0.102	55	54.9	-0.194
MDRSSKRRQVKPLAASLLEALDYDSSDDSDFKVGDASDSEGSGNGSEDASKDSGEGSCSDSEENILEEELNEDIKVKEEQLKNSAEEEVLSSEKQLIKMEKKEEEENGERPRKKKEKEKEKEKEKEKEKEREKEKEKATVSENVAASAAATTPATSPPAVNTSPSVPTTTTATEEQVSEPKKWNLRRNRPLLDFVSMEELNDMDDYDSEDDNDWRPTVVKRKGRSASQKEGSDGDNEDDEDEGSGSDEDENDEGNDEDHSSPASEGGCKKKKSKVLSRNSADDEELTNDSLTLSQSKSNEDSLILEKSQNWSSQKMDHILICCVCLGDNSEDADEIIQCDNCGITVHEGCYGVDGESDSIMSSASENSTEPWFCDACKCGVSPSCELCPNQDGIFKETDAGRWVHIVCALYVPGVAFGDIDKLRPVTLTEMNYSKYGAKECSFCEDPRFARTGVCISCDAGMCRAYFHVTCAQKEGLLSEAAAEEDIADPFFAYCKQHADRLDRKWKRKNYLALQSYCKMSLQEREKQLSPEAQARINARLQQYRAKAELARSTRPQAWVPREKLPRPLTSSASAIRKLMRKAELMGISTDIFPVDNSDTSSSVDGRRKHKQPALTADFVNYYFERNMRMIQIQENMAEQKNIKDKLENEQEKLHVEYNKLCESLEELQNLNGKLRSEGQGIWALLGRITGQKLNIPAILRAPKERKPSKKEGGTQKTSTLPAVLYSCGICKKNHDQHLLLLCDTCKLHYHLGCLDPPLTRMPRKTKNSYWQCSECDQAGSSDMEADMAMETLPDGTKRSRRQIKEPVKFVPQDVPPEPKKIPIRNTRTRGRKRSFVPEEEKHEERVPRERRQRQSVLQKKPKAEDLRTECATCKGTGDNENLVRCDECRLCYHFGCLDPPLKKSPKQTGYGWICQECDSSSSKEDENEAERKNISQELNMEQKNPKK [PHF14]	-0.0393	2.42	-1.13	–	50.1	0.708
MDRVTRYPILGIPQAHRGTGLVLDGDTSYTYHLVCMGPEASGWGQDEPQTWPTDHRAQQGVQRQGVSYSVHAYTGQPSPRGLHSENREDEGWQVYRLGARDAHQGRPTWALRPEDGEDKEMKTYRLDAGDADPRRLCDLERERWAVIQGQAVRKSSTVATLQGTPDHGDPRTPGPPRSTPLEENVVDREQIDFLAARQQFLSLEQANKGAPHSSPARGTPAGTTPGASQAPKAFNKPHLANGHVVPIKPQVKGVVREENKVRAVPTWASVQVVDDPGSLASVESPGTPKETPIEREIRLAQEREADLREQRGLRQATDHQELVEIPTRPLLTKLSLITAPRRERGRPSLYVQRDIVQETQREEDHRREGLHVGRASTPDWVSEGPQPGLRRALSSDSILSPAPDARAADPAPEVRKVNRIPPDAYQPYLSPGTPQLEFSAFGAFGKPSSLSTAEAKAATSPKATMSPRHLSESSGKPLSTKQEASKPPRGCPQANRGVVRWEYFRLRPLRFRAPDEPQQAQVPHVWGWEVAGAPALRLQKSQSSDLLERERESVLRREQEVAEERRNALFPEVFSPTPDENSDQNSRSSSQASGITGSYSVSESPFFSPIHLHSNVAWTVEDPVDSAPPGQRKKEQWYAGINPSDGINSEVLEAIRVTRHKNAMAERWESRIYASEEDD [MISP]	-1.21	-1.86	-2.09	–	51.9	1.38
MDSDDEMVEEAVEGHLDDDGLPHGFCTVTYSSTDRFEGNFVHGEKNGRGKFFFFDGSTLEGYYVDDALQGQGVYTYEDGGVLQGTYVDGELNGPAQEYDTDGRLIFKGQYKDNIRHGVCWIYYPDGGSLVGEVNEDGEMTGEKIAYVYPDERTALYGKFIDGEMIEGKLATLMSTEEGRPHFELMPGNSVYHFDKSTSSCISTNALLPDPYESERVYVAESLISSAGEGLFSKVAVGPNTVMSFYNGVRITHQEVDSRDWALNGNTLSLDEETVIDVPEPYNHVSKYCASLGHKANHSFTPNCIYDMFVHPRFGPIKCIRTLRAVEADEELTVAYGYDHSPPGKSGPEAPEWYQVELKAFQATQQK [SETD7]	1.42	2.54	-0.127	48.7	50.5	-0.119
MDSVEKGAATSVSNPRGRPSRGRPPKLQRNSRGGQGRGVEKPPHLAALILARGGSKGIPLKNIKHLAGVPLIGWVLRAALDSGAFQSVWVSTDHDEIENVAKQFGAQVHRRSSEVSKDSSTSLDAIIEFLNYHNEVDIVGNIQATSPCLHPTDLQKVAEMIREEGYDSVFSVVRRHQFRWSEIQKGVREVTEPLNLNPAKRPRRQDWDGELYENGSFYFAKRHLIEMGYLQGGKMAYYEMRAEHSVDIDVDIDWPIAEQRVLRYGYFGKEKLKEIKLLVCNIDGCLTNGHIYVSGDQKEIISYDVKDAIGISLLKKSGIEVRLISERACSKQTLSSLKLDCKMEVSVSDKLAVVDEWRKEMGLCWKEVAYLGNEVSDEECLKRVGLSGAPADACSTAQKAVGYICKCNGGRGAIREFAEHICLLMEKVNNSCQK [CMAS]	-0.251	-0.391	-0.289	50.8	50	0.303
MDTESTYSGYSYYSSHSKKSHRQGERTRERHKSPRNKDGRGSEKSVTIQPPTGEPLLGNDSTRTEEVQDDNWGETTTAITGTSEHSISQEDIARISKDMEDSVGLDCKRYLGLTVASFLGLLVFLTPIAFILLPPILWRDELEPCGTICEGLFISMAFKLLILLIGTWALFFRKRRADMPRVFVFRALLLVLIFLFVVSYWLFYGVRILDSRDRNYQGIVQYAVSLVDALLFIHYLAIVLLELRQLQPMFTLQVVRSTDGESRFYSLGHLSIQRAALVVLENYYKDFTIYNPNLLTASKFRAAKHMAGLKVYNVDGPSNNATGQSRAMIAAAARRRDSSHNELYYEEAEHERRVKKRKARLVVAVEEAFIHIQRLQAEEQQKAPGEVMDPREAAQAIFPSMARALQKYLRITRQQNYHSMESILQHLAFCITNGMTPKAFLERYLSAGPTLQYDKDRWLSTQWRLVSDEAVTNGLRDGIVFVLKCLDFSLVVNVKKIPFIILSEEFIDPKSHKFVLRLQSETSV [VANGL1]	-1.85	-3.36	-0.322	56	54.7	0.00763
MDTPENVLQMLEAHMQSYKGNDPLGEWERYIQWVEENFPENKEYLITLLEHLMKEFLDKKKYHNDPRFISYCLKFAEYNSDLHQFFEFLYNHGIGTLSSPLYIAWAGHLEAQGELQHASAVLQRGIQNQAEPREFLQQQYRLFQTRLTETHLPAQARTSEPLHNVQVLNQMITSKSNPGNNMACISKNQGSELSGVISSACDKESNMERRVITISKSEYSVHSSLASKVDVEQVVMYCKEKLIRGESEFSFEELRAQKYNQRRKHEQWVNEDRHYMKRKEANAFEEQLLKQKMDELHKKLHQVVETSHEDLPASQERSEVNPARMGPSVGSQQELRAPCLPVTYQQTPVNMEKNPREAPPVVPPLANAISAALVSPATSQSIAPPVPLKAQTVTDSMFAVASKDAGCVNKSTHEFKPQSGAEIKEGCETHKVANTSSFHTTPNTSLGMVQATPSKVQPSPTVHTKEALGFIMNMFQAPTLPDISDDKDEWQSLDQNEDAFEAQFQKNVRSSGAWGVNKIISSLSSAFHVFEDGNKENYGLPQPKNKPTGARTFGERSVSRLPSKPKEEVPHAEEFLDDSTVWGIRCNKTLAPSPKSPGDFTSAAQLASTPFHKLPVESVHILEDKENVVAKQCTQATLDSCEENMVVPSRDGKFSPIQEKSPKQALSSHMYSASLLRLSQPAAGGVLTCEAELGVEACRLTDTDAAIAEDPPDAIAGLQAEWMQMSSLGTVDAPNFIVGNPWDDKLIFKLLSGLSKPVSSYPNTFEWQCKLPAIKPKTEFQLGSKLVYVHHLLGEGAFAQVYEATQGDLNDAKNKQKFVLKVQKPANPWEFYIGTQLMERLKPSMQHMFMKFYSAHLFQNGSVLVGELYSYGTLLNAINLYKNTPEKVMPQGLVISFAMRMLYMIEQVHDCEIIHGDIKPDNFILGNGFLEQDDEDDLSAGLALIDLGQSIDMKLFPKGTIFTAKCETSGFQCVEMLSNKPWNYQIDYFGVAATVYCMLFGTYMKVKNEGGECKPEGLFRRLPHLDMWNEFFHVMLNIPDCHHLPSLDLLRQKLKKVFQQHYTNKIRALRNRLIVLLLECKRSRK [BUB1]	0.554	1.15	-0.019	48.8	49.9	-0.112
